Columns and labels:
RFX1 [1] = biological target: T1, RFX1 (Homo sapiens, UniProt P22670 1-979); assay: EMSA; EMSA: 1x binding buffer from 10x (50 mM NaCl, 10 mM Tris-HCl pH 7.5, 2.5 mM MgCl2, 4% glycerol, 0.5 mM DTT), 0.05% NP40, poly(dI-dC), 20 ul, room temperature 1; settings: protein: ivt; tags: C-terminal myc in the source clone pCMV-RFX1; chain copies: 2; label: 32P end label (T4 kinase); blunt
T1 sequence: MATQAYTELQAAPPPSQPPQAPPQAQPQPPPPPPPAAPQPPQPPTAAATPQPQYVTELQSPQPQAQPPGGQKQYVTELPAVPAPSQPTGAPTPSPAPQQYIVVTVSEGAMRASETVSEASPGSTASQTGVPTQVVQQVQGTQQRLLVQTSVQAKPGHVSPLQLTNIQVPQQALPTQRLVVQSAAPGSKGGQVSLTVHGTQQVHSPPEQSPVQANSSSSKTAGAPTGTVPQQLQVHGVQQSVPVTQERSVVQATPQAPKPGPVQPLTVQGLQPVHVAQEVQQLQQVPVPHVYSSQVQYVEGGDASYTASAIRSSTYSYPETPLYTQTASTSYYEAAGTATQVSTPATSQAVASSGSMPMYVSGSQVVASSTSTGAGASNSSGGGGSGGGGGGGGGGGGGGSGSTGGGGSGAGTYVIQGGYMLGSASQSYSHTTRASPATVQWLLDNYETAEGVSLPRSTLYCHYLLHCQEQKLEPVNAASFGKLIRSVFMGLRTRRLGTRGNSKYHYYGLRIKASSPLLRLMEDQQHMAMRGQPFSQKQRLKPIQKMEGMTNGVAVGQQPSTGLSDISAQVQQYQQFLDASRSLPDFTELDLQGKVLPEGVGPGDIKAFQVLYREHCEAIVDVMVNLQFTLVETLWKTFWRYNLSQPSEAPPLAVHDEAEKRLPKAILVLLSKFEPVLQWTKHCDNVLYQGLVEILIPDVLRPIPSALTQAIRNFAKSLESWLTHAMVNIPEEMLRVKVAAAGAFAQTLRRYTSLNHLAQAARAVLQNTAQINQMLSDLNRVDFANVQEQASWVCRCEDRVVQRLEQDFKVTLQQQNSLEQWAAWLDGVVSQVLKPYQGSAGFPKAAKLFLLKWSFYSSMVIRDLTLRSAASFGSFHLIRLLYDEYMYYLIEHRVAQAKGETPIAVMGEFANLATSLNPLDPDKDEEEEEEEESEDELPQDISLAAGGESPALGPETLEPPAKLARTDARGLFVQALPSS

RFX1 [2] = biological target: T1, RFX1; assay: EMSA; shifted to C2 position; favored over wild-type; EMSA: 1x binding buffer from 10x (50 mM NaCl, 10 mM Tris-HCl pH 7.5, 2.5 mM MgCl2, 4% glycerol, 0.5 mM DTT), 0.05% NP40, poly(dI-dC), 20 ul, room temperature 1; settings: protein: ivt; tags: C-terminal myc in the source clone pCMV-RFX1; chain copies: 2; label: 32P end label (T4 kinase); blunt

B1: NS non-specific oligo (dsDNA)
DNA 1: GGAATTACGTGGCCACTCGAGGGAATTACG
DNA 2: CGTAATTCCCTCGAGTGGCCACGTAATTCC
**Q.** Does B1 bind (RFX1 [1])?
**A.** no binding

B2: A1613 mutant NRE probe (dsDNA)
DNA 1: GCACGTCGCATGGAAACCACCGTGAACGCC
DNA 2: GGCGTTCACGGTGGTTTCCATGCGACGTGC
**Q.** Does B2 bind (RFX1 [2])?
**A.** binds

Source: PMC3140978, “The G1613A Mutation in the HBV Genome Affects HBeAg Expression and Viral Replication through Altered Core Promoter Activity”
